# ± gives the standard deviation of the averaged measurements.
# Tested on: ATP
# Assay: switch fluorescence ratio, 500 uM ATP over buffer (Cy3 cluster intensity, sum of 5 cycles each) (fold (ratio)); higher = stronger signal-on switching upon ATP binding; sequences stand for … in TCGTCGGCAGCGTCAGATGTGTATAAGAGACAGTTTTTTTTTTTTTTTTTTTTTTTTT…TC
# Conditions: aptamer strand: ATP DNA aptamer (quencher-CACCTGGGGGAGTATTGCGGAGGAAGG + anchor), 100 nM annealed; ATP concentration: 500 uM
# Method in brief: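 After annealing to 100 nM quencher-labelled ATP aptamer, Cy3-labelled switching-strand clusters on a modified Illumina MiSeq flow-cell were imaged in selection buffer. A second image followed after 15 min with 500 uM ATP at 22 °C, and five such buffer/ATP cycles were done, each separated by NaOH stripping and re-annealing. The fluorescence ratio, averaged per switch-domain sequence, is summed target-cycle over summed buffer-cycle Cy3 intensity per cluster, with clusters outside 100-1000 RFU excluded.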
# 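Note: ATP exposure 15 min at 22 °C before imaging.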
row,Sequence,switch fluorescence ratio
1,TTTGGGGTAA,0.991 ± 0.029
2,TTTGGGGTGC,1.09 ± 0.12
3,TTTGGGGTGT,1.01 ± 0.06
4,TTTGGGGTTC,1.02 ± 0.044
5,TTTGGGTATG,0.992 ± 0.026
6,TTTGGGTCTT,1.02 ± 0.013
7,TTTGGGTTCG,0.986 ± 0.019
8,TTTGGGTTGG,1.03 ± 0.13
9,TTTGGTAAGT,1.022 ± 0.01
10,TTTGGTACTT,0.986 ± 0.039
11,TTTGGTAGGG,1.02 ± 0.021
12,TTTGGTGCTG,0.983 ± 0.06
13,TTTGGTGGTA,0.984 ± 0.03
14,TTTGGTTCAG,0.994 ± 0.018
15,TTTGGTTTGT,1.1 ± 0.19
16,TTTGGTTTTG,0.995 ± 0.038
17,TTTGTAAGCC,1.06 ± 0.011
18,TTTGTAAGTT,0.995 ± 0.03
19,TTTGTAATTG,1.008 ± 0.01
20,TTTGTAATTT,1.01 ± 0.021
21,TTTGTAGACG,1.04 ± 0.062
22,TTTGTAGATC,1.06 ± 0.066
23,TTTGTAGGGT,0.971 ± 0.011
24,TTTGTATTGC,1.01 ± 0.025
25,TTTGTATTGT,1.019 ± 0.0089

row,Sequence,switch fluorescence ratio
1,TTTGTATTTA,1.03 ± 0.041
2,TTTGTCAGGC,1.02 ± 0.053
3,TTTGTCATCG,1.03 ± 0.018
4,TTTGTCCATG,0.996 ± 0.055
5,TTTGTCCCTT,1.01 ± 0.041
6,TTTGTCCTTA,0.9932 ± 0.0017
7,TTTGTGAGAA,1.02 ± 0.0045
8,TTTGTGAGGG,0.982 ± 0.028
9,TTTGTGAGTT,1.017 ± 0.0042
10,TTTGTGATGT,1.02 ± 0.066
11,TTTGTGATTT,1.11 ± 0.27
12,TTTGTGCTC,1.13 ± 0.15
13,TTTGTGGCAG,0.991 ± 0.039
14,TTTGTGGCGT,0.984 ± 0.023
15,TTTGTGGCTT,1.38 ± 0.65
16,TTTGTGTAAT,0.989 ± 0.038
17,TTTGTGTCAA,1.01 ± 0.04
18,TTTGTGTGTC,1 ± 0.025
19,TTTGTGTTCA,0.98763 ± 0.00075
20,TTTGTTACGT,1.04 ± 0.024
21,TTTGTTAGAC,1.03 ± 0.022
22,TTTGTTATGG,1.02 ± 0.063
23,TTTGTTATGT,0.988 ± 0.019
24,TTTGTTATTG,1.3 ± 0.44
25,TTTGTTCCAG,1.01 ± 0.06

row,Sequence,switch fluorescence ratio
1,TTTGTTCTTT,1.02 ± 0.081
2,TTTGTTGCTG,1.03 ± 0.039
3,TTTGTTGTAG,0.985 ± 0.028
4,TTTGTTGTCT,0.995 ± 0.011
5,TTTGTTTCTT,0.977 ± 0.032
6,TTTGTTTGAA,0.962 ± 0.023
7,TTTGTTTGAG,0.991 ± 0.037
8,TTTGTTTGGC,0.983 ± 0.019
9,TTTGTTTGTG,1 ± 0.014
10,TTTTAAAATT,1 ± 0.035
11,TTTTAAACAT,1.11 ± 0.09
12,TTTTAAAGA,0.982 ± 0.026
13,TTTTAAAGTA,1.01 ± 0.031
14,TTTTAAAGTG,0.993 ± 0.034
15,TTTTAAAGTT,0.968 ± 0.018
16,TTTTAAATCT,1.03 ± 0.019
17,TTTTAAATTT,1.01 ± 0.11
18,TTTTAACGAA,1.01 ± 0.013
19,TTTTAACGGC,0.971 ± 0.082
20,TTTTAAGAAG,1.02 ± 0.018
21,TTTTAAGACG,0.979 ± 0.069
22,TTTTAAGGCT,0.982 ± 0.024
23,TTTTAAGGTG,1.39 ± 0.055
24,TTTTAATACT,1.04 ± 0.066
25,TTTTAATAGC,1 ± 0.028

row,Sequence,switch fluorescence ratio
1,TTTTAATGCG,1.04 ± 0.012
2,TTTTAATGGA,1.03 ± 0.029
3,TTTTAATGGG,0.999 ± 0.02
4,TTTTAATGTC,0.984 ± 0.027
5,TTTTAATTGA,1.02 ± 0.031
6,TTTTAATTGT,1.08 ± 0.083
7,TTTTACACTT,1.04 ± 0.017
8,TTTTACGCT,1.03 ± 0.06
9,TTTTACGCTG,1 ± 0.036
10,TTTTACGGGT,1.02 ± 0.087
11,TTTTACTAAA,1.06 ± 0.036
12,TTTTAGACAG,1.01 ± 0.017
13,TTTTAGACGT,0.991 ± 0.022
14,TTTTAGAGAT,1.02 ± 0.038
15,TTTTAGATTG,0.987 ± 0.028
16,TTTTAGGACA,0.99977 ± 0.00081
17,TTTTAGGTAA,0.9745 ± 0.0034
18,TTTTAGGTGA,1.07 ± 0.025
19,TTTTAGGTGG,0.98 ± 0.067
20,TTTTAGTAGC,1.04 ± 0.0058
21,TTTTAGTATT,0.9973 ± 0.0091
22,TTTTAGTTT,0.996 ± 0.023
23,TTTTATAAAA,1.03 ± 0.019
24,TTTTATACTT,1 ± 0.011
25,TTTTATAGTG,0.984 ± 0.033

row,Sequence,switch fluorescence ratio
1,TTTTATATAT,1.014 ± 0.0079
2,TTTTATCCA,1.016 ± 0.0095
3,TTTTATCCCC,1.08 ± 0.1
4,TTTTATGGCA,1.02 ± 0.021
5,TTTTATGTGG,1.01 ± 0.04
6,TTTTATGTT,0.978 ± 0.018
7,TTTTCAAAGC,1.67 ± 0.84
8,TTTTCAAGTT,1.21 ± 0.38
9,TTTTCAATTG,1.01 ± 0.027
10,TTTTCACGGT,1.01 ± 0.021
11,TTTTCAGCTG,1.03 ± 0.016
12,TTTTCAGTTT,1.022 ± 0.01
13,TTTTCATAAC,1 ± 0.051
14,TTTTCATTGG,0.985 ± 0.026
15,TTTTCATTTG,1.01 ± 0.034
16,TTTTCCAGCC,1.04 ± 0.036
17,TTTTCCAGGT,1.83 ± 0.42
18,TTTTCCATTG,1.01 ± 0.021
19,TTTTCCGACA,2.28 ± 1.5
20,TTTTCCGCGC,2.08 ± 0.47
21,TTTTCCGGTT,1.23 ± 0.42
22,TTTTCCGTTC,1.02 ± 0.021
23,TTTTCCTCTT,1.02 ± 0.014
24,TTTTCGAATT,0.991 ± 0.015
25,TTTTCGAGCT,1.006 ± 0.0095

row,Sequence,switch fluorescence ratio
1,TTTTCGAGGT,1.17 ± 0.24
2,TTTTCGCCAC,2.35 ± 1.3
3,TTTTCGCTGT,1.02 ± 0.016
4,TTTTCGGACA,1.033 ± 0.0027
5,TTTTCGGGCG,0.944 ± 0.017
6,TTTTCGGTAG,0.989 ± 0.027
7,TTTTCGGTCG,0.999 ± 0.046
8,TTTTCGTGGC,0.989 ± 0.1
9,TTTTCGTTGT,0.996 ± 0.018
10,TTTTCTACCC,1.03 ± 0.059
11,TTTTCTAGGT,0.982 ± 0.021
12,TTTTCTCAGC,1.05 ± 0.029
13,TTTTCTCTCA,1.01 ± 0.02
14,TTTTCTGACC,1.02 ± 0.012
15,TTTTCTGCCT,1.07 ± 0.089
16,TTTTCTTTGG,1.03 ± 0.077
17,TTTTGAAATA,0.997 ± 0.017
18,TTTTGAACGC,1.065 ± 0.0016
19,TTTTGAAGTC,1.03 ± 0.092
20,TTTTGAGACT,0.96 ± 0.0084
21,TTTTGAGAGA,1.11 ± 0.25
22,TTTTGAGAGG,0.983 ± 0.036
23,TTTTGAGATT,0.995 ± 0.011
24,TTTTGAGCGG,1.04 ± 0.015
25,TTTTGAGTCG,1.01 ± 0.033

row,Sequence,switch fluorescence ratio
1,TTTTGAGTTC,1.035 ± 0.0057
2,TTTTGATACG,0.996 ± 0.041
3,TTTTGATCAT,0.98 ± 0.013
4,TTTTGATCGT,0.962 ± 0.023
5,TTTTGATGAC,1.01 ± 0.047
6,TTTTGATTAT,0.978 ± 0.034
7,TTTTGCACCG,1.02 ± 0.053
8,TTTTGCCAGT,1.11 ± 0.23
9,TTTTGCCGAT,0.989 ± 0.023
10,TTTTGCCTTA,1.007 ± 0.0063
11,TTTTGCGAAT,0.996 ± 0.018
12,TTTTGCGGCG,1.25 ± 0.29
13,TTTTGCGGTG,1.01 ± 0.017
14,TTTTGCGTTT,0.992 ± 0.07
15,TTTTGCTATT,1.03 ± 0.013
16,TTTTGGACAT,0.993 ± 0.029
17,TTTTGGAGAA,1.02 ± 0.037
18,TTTTGGAGAT,1.01 ± 0.027
19,TTTTGGAGGA,1.02 ± 0.019
20,TTTTGGAGTT,0.998 ± 0.035
21,TTTTGGATCG,1 ± 0.012
22,TTTTGGATTT,0.993 ± 0.018
23,TTTTGGCAGG,1.03 ± 0.037
24,TTTTGGCAGT,1.09 ± 0.013
25,TTTTGGCCAT,0.995 ± 0.082

row,Sequence,switch fluorescence ratio
1,TTTTGGCCTA,1.01 ± 0.029
2,TTTTGGCGGC,0.9504 ± 0.0056
3,TTTTGGCTTG,0.9884 ± 0.0012
4,TTTTGGGACC,0.992 ± 0.037
5,TTTTGGGATA,1.03 ± 0.025
6,TTTTGGGATC,0.996 ± 0.016
7,TTTTGGGCCA,1.04 ± 0.018
8,TTTTGGGGAG,1.02 ± 0.029
9,TTTTGGGGAT,1.01 ± 0.026
10,TTTTGGGGGT,1.03 ± 0.096
11,TTTTGGTAAT,1.01 ± 0.014
12,TTTTGGTGAG,0.972 ± 0.025
13,TTTTGGTGGG,0.9972 ± 0.0074
14,TTTTGGTTAT,1.01 ± 0.03
15,TTTTGTAAGG,1.011 ± 0.0043
16,TTTTGTATCG,0.948 ± 0.052
17,TTTTGTCAAG,1.01 ± 0.033
18,TTTTGTCAAT,1.1 ± 0.13
19,TTTTGTCGGT,0.9667 ± 0.0042
20,TTTTGTGGAA,0.998 ± 0.027
21,TTTTGTGGGA,1.01 ± 0.031
22,TTTTGTGGTT,1.02 ± 0.065
23,TTTTGTGTTA,0.997 ± 0.033
24,TTTTGTTATG,0.9903 ± 0.0085
25,TTTTGTTCGG,0.99 ± 0.029

# From the supplement of paper PMC10126150
